What was measured:
[1] = biological target: T1, VEGF (UniProt P15692-4 27-191, limits assumed, biotin-labelled (Sulfo-NHS biotin, molar ratio 2:1) in the BLI assay; unlabelled in the competition ELISA); test: BLI (Octet-QK), biotin-VEGF on SA probe; repeat 1
T1 construct: also called biotin-labeled VEGF
Text: (§1) The binding affinities of the fusion proteins were detected using BLI (Bio-layer inteferometry, ForteBio). […] Excess biotin not involved in labeling was removed by dialysis. […] The buffer used in the experiment was PBS (containing 0.1% Tween-20). […] Based on the program settings, the fusion proteins were bound, and then dissociated in PBST solution, to obtain the experimental curves. According to the result analysis software of Octet-QK, local full was used to fit the curves of the experimental results, then kon, kdis and Kd were determined.

[2] = biological target: T1, VEGF; test: BLI (Octet-QK), biotin-VEGF on SA probe; average of 3 repeats (STD 0.11)
Text: as §1

[3] = biological target: T1, VEGF; test: competition ELISA: inhibition of VEGF binding to plate-coated VEGF Receptor 2 (KDR)
Protocol: (§2) The plate was then blocked with 1% BSA/TBS and placed at 37° C. for 1 h; 1% BSA/TBS was added to the plate, 200 μL per well, and placed at 37° C. for 2 h.
(§3) Then, the stock solutions were diluted by 3 times to a total of 11 concentrations. […] The KDR-coated ELISA plate was washed twice and pat-dried. The mixture was successively transferred to the ELISA plate and placed at 37° C. for 1 h, then the plate was washed for 6 times. […] The plate was placed at 37° C. for 1 h and washed for 6 times. Then, goat anti-rat secondary antibody (Pierce, 31432, QA1969921) diluted at 1:1000 was added, 50 μL per well. The plate was placed at 37° C. for 1 h and washed for 6 times. Color developing solution was added after reaction, and the plated was incubated at 37° C. for 15 min. Stop buffer was added to terminate the color reaction. OD450 values were read on a microplate reader.

[4] = biological target: T1, VEGF; test: competition ELISA: sample pre-mixed with VEGF, mixture put on a plate coated with VEGF Receptor 2 (KDR), bound VEGF detected with mouse anti-human VEGF antibody, OD450; blocked ligand-receptor pair VEGF/KDR
Protocol: as §2, §3

[5] = biological target: T1, VEGF; test: BLI (Octet-QK), biotin-VEGF on SA probe; repeat 2
Text: as §1

[6] = biological target: T1, VEGF; test: BLI (Octet-QK), biotin-VEGF on SA probe; repeat 3
Text: as §1

T1 sequence (P15692 other isoform, or with tags, fused parts or gaps limits assumed): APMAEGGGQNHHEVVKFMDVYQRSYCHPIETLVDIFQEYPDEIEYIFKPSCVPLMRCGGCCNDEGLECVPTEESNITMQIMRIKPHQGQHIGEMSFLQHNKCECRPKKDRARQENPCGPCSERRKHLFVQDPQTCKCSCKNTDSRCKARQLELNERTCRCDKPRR

Kd [1]: 0.63 nM
Kd [2]: 0.51 nM
IC50 [3]: 0.51 nM
IC50 (read off the curve) [4]: ~0.3 nM
Kd [5]: 0.49 nM
Kd [6]: 0.42 nM
B1: PU98x43-ARVEGF (designed binder)
chain: AEPAAPAPAEPAAPAPEAPAAEPAAPAPAEPAAPAPEAPAAEPAAPAPAEPAAPAPEAPAAEPAAPAPAEPAAPAPEAPAAEPAAPAPAEPAAPAPEAPAAEPAAPAPAEPAAPAPEAPAAEPAAPAPAEPAAPAPEAPAAEPAAPAPAEPAAPAPEAPAAEPAAPAPAEPAAPAPEAPAAEPAAPAPAEPAAPAPEAPAAEPAAPAPAEPAAPAPEAPAAEPAAPAPAEPAAPAPEAPAAEPAAPAPAEPAAPAPEAPAAEPAAPAPAEPAAPAPEAPAAEPAAPAPAEPAAPAPEAPAAEPAAPAPAEPAAPAPEAPAAEPAAPAPAEPAAPAPEAPAAEPAAPAPAEPAAPAPEAPAAEPAAPAPAEPAAPAPEAPAAEPAAPAPAEPAAPAPEAPAAEPAAPAPAEPAAPAPEAPAAEPAAPAPAEPAAPAPEAPAAEPAAPAPAEPAAPAPEAPAAEPAAPAPAEPAAPAPEAPAAEPAAPAPAEPAAPAPEAPAAEPAAPAPAEPAAPAPEAPAAEPAAPAPAEPAAPAPEAPAAEPAAPAPAEPAAPAPEAPAAEPAAPAPAEPAAPAPEAPAAEPAAPAPAEPAAPAPEAPAAEPAAPAPAEPAAPAPEAPAAEPAAPAPAEPAAPAPEAPAAEPAAPAPAEPAAPAPEAPAAEPAAPAPAEPAAPAPEAPAAEPAAPAPAEPAAPAPEAPAAEPAAPAPAEPAAPAPEAPAAEPAAPAPAEPAAPAPEAPAAEPAAPAPAEPAAPAPEAPAAEPAAPAPAEPAAPAPEAPAAEPAAPAPAEPAAPAPEAPAAEPAAPAPAEPAAPAPEAPAAEPAAPAPAEPAAPAPEAPAAEPAAPAPAEPAAPAPEAPAGSDLDKKLLEAARAGQDDEVRILMANGADVNARDSTGWTPLHLAAPWGHPEIVEVLLKNGADVNAADFQGWTPLHLAAAVGHLEIVEVLLKYGADVNAQDKFGKTAFDISIDNGNEDLAEILQKAA
notes: also called PU-ARVEGF fusion protein
